In patent CN112574305A (UNIV TSINGHUA RES INST SHENZHEN, dated 2021):

Experiments:
mBDNF = target: T1, mBDNF (UniProt P23560 129-247, limits assumed); assay: ELISA, mBDNF coated at 2 μg/ml, purified antibody added, OD450
T1 construct: mature; also called 成熟BDNF
T1 sequence (looked up): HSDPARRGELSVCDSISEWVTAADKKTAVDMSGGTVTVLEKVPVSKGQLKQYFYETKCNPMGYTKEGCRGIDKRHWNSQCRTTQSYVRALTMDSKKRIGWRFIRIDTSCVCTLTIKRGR

ProBDNF = target: T2, ProBDNF; assay: ELISA, OD450
T2 sequence (peptide): CDQKVRPNEENNKDA

binding result (mBDNF): no binding
抗原浓度 (lowest antigen concentration detected) (ProBDNF): 1.95 ng/mL
B1: 抗ProBDNF抗体 (antibody, IgG2b, V domains shown)
VH: QVQLQQSGPELVKPGASVTISCKTSAYGFSSSWMNWVKQRPGQGLEWIGRIYPGDGETNYNGKFMGKATLTADKSSNTVYMHLSSLTSVDSAVYFCTRRELVYWGQGTLVTVSA
VL: DIVLTQSPASLAVSLGQRATISCRTSESVDTYGNSFIHWYQQKPGQPPKLLIYRASRLESGIPARFSGSGSRTDFTLTINPVEADDVATYYCQQSYEDPWTFGGGTKLEIK
notes: Mouse hybridoma antibody, made recombinantly in 293 cells; also called 针对前体脑源性神经营养因子的抗体; 实施例2提供的纯化抗体
